Laboratory results reported in US7056679 (ANTYRA, dated 2006).

T1: DGI-2 polypeptide (UniProt Q15004 1-111, limits assumed)
T1 construct: Soluble recombinant protein coated at 500 ng/well; vector tag of pIVEX2.3-MCS not described for this construct; also called KIAA0101
T1 sequence (looked up): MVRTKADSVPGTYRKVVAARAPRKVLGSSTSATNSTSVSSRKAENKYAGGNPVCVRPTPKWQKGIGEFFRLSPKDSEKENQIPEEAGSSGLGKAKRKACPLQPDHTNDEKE

B1: DGI-2-20F-PP-B10 (peptide)
peptide: KVWGCGARRGWERLGHLNQVAAAGAPVPYPDPLEPRP
B2: DGI-2-20F-PP-D1 (peptide)
peptide: RISVGQCGTSRCGGGRRGGGAAAGAPVPYPDPLEPRP
B3: DGI-2-20F-PP-B12 (peptide)
peptide: RQRSGGRWVVDRVTRVASTSPAAAGAPVPYPDPLEPRP
B4: DGI-2-20F-PP-A10 (peptide)
peptide: RRFVRCSVPVALRSAVPVSVAAAGAPVPYPDPLEPRP
B5: DGI-2-20F-PP-D8 (peptide)
peptide: VVGYAQGDGLEGGLGSSRDGSAAAGAPVPYPDPLEPRP
B6: DGI-2-20F-PP-D3 (peptide)
peptide: VQSGRDLGGLLRGGTGTEASPAAAGAPVPYPDPLEPRP
B7: DGI-2-20F-PP-C12 (peptide)
peptide: PVYRVAMCRISVGCSAGAWFAAAGAPVPYPDPLEPRP
B8: DGI-2-20F-PP-C5 (peptide)
peptide: SVSGGGVFGTGGRVRHQVSGAAAGAPVPYPDPLEPRP
B9: DGI-2-20F-PP-D4 (peptide)
peptide: DRHRAFVAEGLDGFRHSTGVAAAGAPVPYPDPLEPRP
B10: DGI-2-20F-PP-A7 (peptide)
peptide: GGDLGEQGVQLCPDVVRGGSLAAAGAPVPYPDPLEPRP
B11: DGI-2-20F-PP-A82 (peptide)
peptide: CYLSRLFRSGQGIGQFGHVEAAAGAPVPYPDPLEPRP
B12: DGI-2-20F-PP-F2 (peptide)
peptide: VTGTRFRGFAVACVRMGTWHAAAGAPVPYPDPLEPRP
B13: DGI-2-20F-PP-H8 (peptide)
peptide: SRGMAEAQFSAWPVLAVFPLAAAGAPVPYPDPLEPRP
B14: DGI-2-20F-PP-B42 (peptide)
peptide: SLLCVVCRPVSGGRALGGVPAAAGAPVPYPDPLEPRP
B15: DGI-2-20F-PP-F12 (peptide)
peptide: VGQSSGDARPLANLFVFPFVAAAGAPVPYPDPLEPRP
B16: DGI-2-20F-PP-H4 (peptide)
peptide: CCAWNGVGVGGLGWRVVVGPAAAGAPVPYPDPLEPRP
B17: DGI-2-20F-PP-D2 (peptide)
peptide: SVTISTSCRTGCPAGYLRRDAAAGAPVPYPDPLEPRP

Molecular target: T2, antibody raised against ETAG
T2 construct: Coated at 500 ng/well; also called E-tag antibody
Assay: phage ELISA
Protocol: (§1) For analysis of individual target binders, colonies were picked and phage prepared as described above using helper phage, M13KO7. Ninety-six-well microtiter plates were coated with 500 ng/well of specific target protein, 500 ng/well lactate dehydrogenase (LDH) irrelevant or non-specific target, 500 ng/well of positive control antibody raised against ETAG, and negative control of non-fat milk powder-PBS 2% at 4° C. overnight. Plates were then blocked with 350 microliters/well PBS containing 2% non-fat milk for 1 hr at room temperature. One hundred microliters per well of phage from isolated clones were added and plates were incubated at room temperature for 2 hr after centrifuging samples for 20 minutes at 3500 rpm at 4° C. The phage solution was then removed, and the wells were washed three times with PBS at room temperature. Antibody raised against M13 conjugated to horseradish peroxidase (Pharmacia) was diluted 1:3000 in PBS-Tween and added to each well (100 µl/well). Incubation was for 1 hr at room temperature, followed by washing with PBS-(0.5%) Tween 3 times as described. Color was developed by addition of ABTS solution (100 µl/well; Boehringer, Indianapolis, Ind.). Plates were analyzed at 405 nm. A clone was considered "positive" if the $A405$ of the well was $\geq$2-fold over background.

Compared with B1, B2 is lower in “ETAG (OD)” value: 27.1 OD for the first, 3 OD for the second.

Compared with B3, B4 is higher in “ETAG (OD)” value: 1.9 OD for the first, 16.3 OD for the second.

First: B5
Second: B6
The “ETAG (OD)” value of the first is lower: 2.6 OD for the first, 15 OD for the second.

First: B7
Second: B8
The “ETAG (OD)” value of the first is higher: 36.4 OD for the first, 33.9 OD for the second.

First: B9
Second: B10
The “ETAG (OD)” value of the first is higher: 44 OD for the first, 42.2 OD for the second.

Compared with B11, B12 is lower in “ETAG (OD)” value: 16.5 OD for the first, 1.9 OD for the second.

Going from B13 to B14, the “ETAG (OD)” value falls from 32.4 OD to 21.5 OD.

Compared with B15, B16 is lower in “ETAG (OD)” value: 47.6 OD for the first, 32.9 OD for the second.

With B17 the “ETAG (OD)” value was 30.8 OD.

Molecular target: T1, DGI-2 polypeptide
Assay: phage ELISA
Protocol: as §1

Going from B1 to B2, the “DGI-2 (OD)” value rises from 1.9 OD to 2 OD.

Compared with B3, B4 is higher in “DGI-2 (OD)” value: 2.3 OD for the first, 2.4 OD for the second.

Compared with B5, B6 is lower in “DGI-2 (OD)” value: 2.3 OD for the first, 2.2 OD for the second.

Compared with B7, B8 is lower in “DGI-2 (OD)” value: 2.5 OD for the first, 2.2 OD for the second.

B9 and B10 are the same in “DGI-2 (OD)” value: 2.6 OD for the first, 2.6 OD for the second.

Going from B11 to B12, the “DGI-2 (OD)” value falls from 2.5 OD to 2.4 OD.

Compared with B13, B14 is higher in “DGI-2 (OD)” value: 1.6 OD for the first, 2.4 OD for the second.

B15 and B16 are the same in “DGI-2 (OD)” value: 2.1 OD for the first, 2.1 OD for the second.

B17 was tested, and the “DGI-2 (OD)” value was 2.2 OD.

Going from B1 to B2, the DGI-2/LDH falls from 2.4 ratio to 1.9 ratio.

Compared with B3, B4 is higher in DGI-2/LDH: 2.2 ratio for the first, 2.4 ratio for the second.

First: B5
Second: B6
The DGI-2/LDH of the first is lower: 2.2 ratio for the first, 2.4 ratio for the second.

Going from B7 to B8, the DGI-2/LDH falls from 2.9 ratio to 2.4 ratio.

Going from B9 to B10, the DGI-2/LDH rises from 2.3 ratio to 2.8 ratio.

Compared with B11, B12 is higher in DGI-2/LDH: 2.3 ratio for the first, 2.5 ratio for the second.

Going from B13 to B14, the DGI-2/LDH rises from 1.9 ratio to 2.5 ratio.

Compared with B15, B16 is lower in DGI-2/LDH: 2.3 ratio for the first, 2.2 ratio for the second.

In the case of B17, the DGI-2/LDH is reported as 3.1 ratio.

Molecular target: T3, lactate dehydrogenase (LDH)
T3 construct: Coated at 500 ng/well as non-specific target; also called LDH polypeptide
Assay: phage ELISA
Protocol: as §1

First: B1
Second: B2
The “LDH (OD)” value of the first is lower: 0.8 OD for the first, 1.1 OD for the second.

Going from B3 to B4, the “LDH (OD)” value falls from 1.1 OD to 1 OD.

Compared with B5, B6 is lower in “LDH (OD)” value: 1.1 OD for the first, 0.9 OD for the second.

B7 and B8 are the same in “LDH (OD)” value: 0.9 OD for the first, 0.9 OD for the second.

Compared with B9, B10 is lower in “LDH (OD)” value: 1.1 OD for the first, 0.9 OD for the second.

First: B11
Second: B12
The “LDH (OD)” value of the first is higher: 1.1 OD for the first, 1 OD for the second.

Compared with B13, B14 is higher in “LDH (OD)” value: 0.9 OD for the first, 1 OD for the second.

First: B15
Second: B16
The “LDH (OD)” value of the first is lower: 0.9 OD for the first, 1 OD for the second.

For B17, the “LDH (OD)” value was 0.7 OD.
